Measurements from PMC11533990.

Target: Full-length wild-type (WT) OaPAC, photoactivated adenylate cyclase from Oscillatoria acuminata (Oscillatoria acuminata)
Assay: crystal structure; serial femtosecond crystallography (SFX) at the European XFEL, room temperature (294 K), microcrystals grown in 0.06 M divalents (MgCl2/CaCl2), 0.1 M Tris-Bicine pH 8.5, 30% PEG 550 MME/PEG 20 000; space group P2(1)2(1)2, one monomer in the asymmetric unit, dimer by crystal symmetry; 1.75 A

For “Full-length wild-type (WT) OaPAC, photoactivated adenylate cyclase from Oscillatoria acuminata (enzyme)”, the stoichiometry N was 2.
